In test [1] the target is T1, β-amyloid peptide 1-42.
T1 construct: Synthesised on solid phase; It was coated on plates or used in solution; one result is told for its fibrillar form; also called Aβ42; peptide Aβ42
Put plainly: competition ELISA. Background: In an ELISA, binding on a coated surface is turned into a signal by an enzyme label.

Test [2] has as its target T1, β-amyloid peptide 1-42. Put plainly: ELISA with overlapping peptides that are fragments of Aβ42; the affinity is told for the carboxy terminal part.

B1: VHH ALZ L1-3 (VHH)
VHH: EVQLQASGGGLVQAGGSLRLSCSASASTTFSMNTMAWHRQAPGKQRSLVALIGATHSINYEDSVKGRFTISRDNAKNTVYLQMSSLKPEDTAVYYCNDWYWQMKGGSWGQGTQVTVSS
notes: Alpaca VHH, produced soluble in E. coli HB2151 from pHEN-1 and tested as culture supernatant; It was detected with anti-c-myc 9E10; also called VHH ALZ Ll-3; VHH-L1-3
The molecule B1 came in with an equilibrium dissociation constant (Kd) with β-amyloid peptide 1-42 [1] of 60 nM.

B2: VHH ALZ L35 (VHH)
VHH: EVQLQASGGGLVQAGGSLRLSCAASGSTFSINVIGWYRQAPGKQRELVAGISRSGNTNYADSVEGRFTISRDYAKNTVYLQMNSLKPEDTAVYYCHSKTYLLHMYWGQGTQVTVSS
notes: Alpaca VHH, produced soluble in E. coli HB2151 from pHEN-1 and tested as culture supernatant; It was detected with anti-c-myc 9E10; also called VHH-L35; VHH L35
In the test with β-amyloid peptide 1-42 [1], B2 returned a Kd of 30 nM. This Kd lies about 2-fold lower than the previous one.

B3: VHH ALZ V31-1 (VHH)
VHH: EVQLQASGGGSVQPGGSLRLSCAASGFIFGWSTMSWVRQAPGKGLEWVSTISGGGSATTYTDSVKGRFTISRDRAKNTLYLQMNSLKPEDTAIYYCNADVSTGFRYQRKDYWGRGTQVTVSS
notes: Alpaca VHH, produced soluble in E. coli HB2151 from pHEN-1; It was detected with anti-c-myc 9E10; also called VHH-V31-1; VHH V31-1
In turn, B3 yielded a dissociation constant Kd with β-amyloid peptide 1-42 [2] of approximately 10 nM.

The Kd is the constant that tells how readily two partners part at equilibrium. A low value points to higher affinity.

The values are drawn from patent WO2004044204A2 (dated 2004).
